For the assay, the target named is human collagen (Sigma cat. no. C5483) (human). Put plainly: ELISA on immobilised human collagen (FIG. 9).
Sequence of human collagen (Sigma cat. no. C5483) (human) (P02452 162-1218, chain 1 of 2): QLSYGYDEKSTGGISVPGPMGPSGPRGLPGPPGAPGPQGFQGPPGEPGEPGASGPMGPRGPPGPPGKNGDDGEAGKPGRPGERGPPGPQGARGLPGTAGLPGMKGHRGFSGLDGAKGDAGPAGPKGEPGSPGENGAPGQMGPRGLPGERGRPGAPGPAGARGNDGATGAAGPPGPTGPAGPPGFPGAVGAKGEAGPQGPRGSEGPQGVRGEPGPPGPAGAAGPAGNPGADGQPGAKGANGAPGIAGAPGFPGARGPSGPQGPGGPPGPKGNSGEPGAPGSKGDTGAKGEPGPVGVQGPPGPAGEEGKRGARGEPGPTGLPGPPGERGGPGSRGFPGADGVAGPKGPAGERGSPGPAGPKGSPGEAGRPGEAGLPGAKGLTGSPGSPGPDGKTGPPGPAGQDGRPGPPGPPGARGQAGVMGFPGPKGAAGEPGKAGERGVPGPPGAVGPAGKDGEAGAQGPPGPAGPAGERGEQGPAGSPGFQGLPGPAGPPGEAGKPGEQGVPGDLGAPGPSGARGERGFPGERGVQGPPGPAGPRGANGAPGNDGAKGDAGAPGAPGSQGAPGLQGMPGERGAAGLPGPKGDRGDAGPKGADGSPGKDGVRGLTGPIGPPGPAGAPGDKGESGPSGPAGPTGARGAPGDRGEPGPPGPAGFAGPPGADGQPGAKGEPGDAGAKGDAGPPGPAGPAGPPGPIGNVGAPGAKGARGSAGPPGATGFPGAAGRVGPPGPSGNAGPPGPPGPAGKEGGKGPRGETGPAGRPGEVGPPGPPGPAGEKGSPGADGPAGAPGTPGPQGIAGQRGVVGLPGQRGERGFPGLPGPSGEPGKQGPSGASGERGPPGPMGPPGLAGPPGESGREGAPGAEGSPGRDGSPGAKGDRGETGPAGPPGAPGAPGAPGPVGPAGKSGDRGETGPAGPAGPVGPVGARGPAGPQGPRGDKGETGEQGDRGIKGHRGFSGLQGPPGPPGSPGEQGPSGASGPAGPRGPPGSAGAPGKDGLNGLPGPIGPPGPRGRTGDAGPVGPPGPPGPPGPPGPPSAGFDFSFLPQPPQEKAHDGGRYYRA
Sequence of human collagen (Sigma cat. no. C5483) (human) (P08123 80-1119, chain 2 of 2, further chain): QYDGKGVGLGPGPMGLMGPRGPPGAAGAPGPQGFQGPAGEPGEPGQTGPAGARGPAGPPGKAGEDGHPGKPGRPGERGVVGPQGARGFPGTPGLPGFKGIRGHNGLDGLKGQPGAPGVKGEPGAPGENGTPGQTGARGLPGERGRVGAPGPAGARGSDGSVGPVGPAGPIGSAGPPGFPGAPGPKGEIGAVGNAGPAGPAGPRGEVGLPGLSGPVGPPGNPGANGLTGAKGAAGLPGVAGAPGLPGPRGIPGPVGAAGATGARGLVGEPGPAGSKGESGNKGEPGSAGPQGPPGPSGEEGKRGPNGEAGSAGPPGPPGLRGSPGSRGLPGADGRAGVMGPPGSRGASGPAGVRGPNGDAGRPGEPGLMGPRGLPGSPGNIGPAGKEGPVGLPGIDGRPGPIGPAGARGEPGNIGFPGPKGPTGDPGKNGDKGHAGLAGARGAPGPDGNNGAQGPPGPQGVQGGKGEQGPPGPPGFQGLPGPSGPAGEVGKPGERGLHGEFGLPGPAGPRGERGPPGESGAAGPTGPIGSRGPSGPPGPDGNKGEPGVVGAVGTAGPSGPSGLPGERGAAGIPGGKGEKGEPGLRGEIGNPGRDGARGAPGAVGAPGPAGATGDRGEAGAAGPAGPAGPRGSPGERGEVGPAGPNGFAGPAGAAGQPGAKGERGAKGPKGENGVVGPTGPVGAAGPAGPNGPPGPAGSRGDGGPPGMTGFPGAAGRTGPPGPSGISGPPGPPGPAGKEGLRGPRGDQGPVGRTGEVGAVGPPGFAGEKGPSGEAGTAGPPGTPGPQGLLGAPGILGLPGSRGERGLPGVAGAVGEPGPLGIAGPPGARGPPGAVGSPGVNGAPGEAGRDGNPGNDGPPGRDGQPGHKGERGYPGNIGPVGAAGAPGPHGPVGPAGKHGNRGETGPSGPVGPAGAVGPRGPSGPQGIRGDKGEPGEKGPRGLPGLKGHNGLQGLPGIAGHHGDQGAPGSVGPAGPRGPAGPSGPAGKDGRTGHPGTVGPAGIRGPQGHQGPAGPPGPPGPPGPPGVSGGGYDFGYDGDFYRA

Regarding “GAIM scaffold variant with the Q128H mutation (Fc fusion)”, the fold increase in non-specific binding to collagen was determined as 1.4 fold.

The values above are taken from patent US20230279064A1.
